Reference: IntAct's records for PubMed 31515488

B1: IQ motif and ubiquitin-like domain-containing protein (Homo sapiens), Q8NA54 (parent)
chain: MSNQQEKYEAQNIVNSTEESDDAFDTVTIPVPSEEPQESDQTEEHESGIEQFSESHAIHVEEQSDQSFSSLEPDNEQLMEEVISPRQVSYTPQHHEKQYAMQRPNDDSLAFLDKIKSVKESLQESVEDSLATVKVVLIPVGQEIVIPFKVDTILKYLKDHFSHLLGIPHSVLQIRYSGKILKNNETLVQHGVKPQEIVQVEIFSTNPDLYPVRRIDGLTDVSQIITVTVQTGLDQYQQVPVEIVKSDFHKPFLGGFRHKVTGVEYHNAGTQTVPKRIPERLSIFCRDTQTVFQKKNLQQTTNTTSTQMTNIGVYVSNMTDKLVTPGKYFSAAEYHAQRLKAVIVIQTYYRQWHAKIFVENLRRQKSLRLEWETQQELRKIREKEEWIKLDYHRRHNPKTNEDFEFLYNALEFWRQEELTRINQSFTGAERKAALCELLEKETQIIASIGRHRYIAYMANQEAAIQAFLDKCSAPKIWRTPNGKTIEMDTQFTIRARELQNIYKCIMLKNISQDERLDVLLTLKHTVKEHECKLTQEILELIDREVDLMMRGVKHHNLEGLRKRIATLFFHYIKTPLFNPEVAKYLKVPQDPLKFYKKIYFCHSCQLYLPSTEFSVSSTSRRIYRCRNCINLQNEAQKRESFLKYKCLLQQLYYTEADYEDDSKIAFLMQLQDIQYLTENIWASQSVLSACDNLSDLVMVRWNKSLEWSPWNCILLTKDEAAAHLKLTSIEEGYERSFIHKIKHKHILAKNYFSQVPVLASFILDDGEIDEIRWKYHSDTTPKIIESQRPPH
partner: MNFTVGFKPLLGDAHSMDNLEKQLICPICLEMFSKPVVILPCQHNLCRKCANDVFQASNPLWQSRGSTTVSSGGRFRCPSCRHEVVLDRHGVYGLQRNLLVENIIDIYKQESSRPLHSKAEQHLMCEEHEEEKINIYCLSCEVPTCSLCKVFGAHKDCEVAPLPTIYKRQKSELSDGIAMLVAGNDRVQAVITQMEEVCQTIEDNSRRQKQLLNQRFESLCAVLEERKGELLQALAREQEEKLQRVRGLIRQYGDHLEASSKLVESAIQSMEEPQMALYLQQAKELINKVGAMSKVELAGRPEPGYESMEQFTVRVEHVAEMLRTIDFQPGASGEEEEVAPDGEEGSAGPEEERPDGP
B2: Spermatogenesis-associated protein 2 (Homo sapiens), Q9UM82 (parent)
chain: MGKPSSMDTKFKDDLFRKYVQFHESKVDTTTSRQRPGSDECLRVAASTLLSLHKVDPFYRFRLIQFYEVVESSLRSLSSSSLRALHGAFSMLETVGINLFLYPWKKEFRSIKTYTGPFVYYVKSTLLEEDIRAILSCMGYTPELGTAYKLRELVETLQVKMVSFELFLAKVECEQMLEIHSQVKDKGYSELDIVSERKSSAEDVRGCSDALRRRAEGREHLTASMSRVALQKSASERAAKDYYKPRVTKPSRSVDAYDSYWESRKPPLKASLSLRKEPVATDVGDDLKDEIIRPSPSLLTMASSPHGSPDVLPPASPSNGPALLRGTYFSTQDDVDLYTDSEPRATYRRQDALRPDVWLLRNDAHSLYHKRSPPAKESALSKCQSCGLSCSSSLCQRCDSLLTCPPASKPSAFPSKASTHDSLAHGASLREKYPGQTQGLDRLPHLHSKSKPSTTPTSRCGFCNRPGATNTCTQCSKVSCDACLSAYHYDPCYKKSELHKFMPNNQLNYKSTQLSHLVYR
B3: Inactive peptidyl-prolyl cis-trans isomerase FKBP6 (Homo sapiens), O75344 (parent)
chain: MGGSALNQGVLEGDDAPGQSLYERLSQRMLDISGDRGVLKDVIREGAGDLVAPDASVLVKYSGYLEHMDRPFDSNYFRKTPRLMKLGEDITLWGMELGLLSMRRGELARFLFKPNYAYGTLGCPPLIPPNTTVLFEIELLDFLDCAESDKFCALSAEQQDQFPLQKVLKVAATEREFGNYLFRQNRFYDAKVRYKRALLLLRRRSAPPEEQHLVEAAKLPVLLNLSFTYLKLDRPTIALCYGEQALIIDQKNAKALFRCGQACLLLTEYQKARDFLVRAQKEQPFNHDINNELKKLASCYRDYVDKEKEMWHRMFAPCGDGSTAGES
partner: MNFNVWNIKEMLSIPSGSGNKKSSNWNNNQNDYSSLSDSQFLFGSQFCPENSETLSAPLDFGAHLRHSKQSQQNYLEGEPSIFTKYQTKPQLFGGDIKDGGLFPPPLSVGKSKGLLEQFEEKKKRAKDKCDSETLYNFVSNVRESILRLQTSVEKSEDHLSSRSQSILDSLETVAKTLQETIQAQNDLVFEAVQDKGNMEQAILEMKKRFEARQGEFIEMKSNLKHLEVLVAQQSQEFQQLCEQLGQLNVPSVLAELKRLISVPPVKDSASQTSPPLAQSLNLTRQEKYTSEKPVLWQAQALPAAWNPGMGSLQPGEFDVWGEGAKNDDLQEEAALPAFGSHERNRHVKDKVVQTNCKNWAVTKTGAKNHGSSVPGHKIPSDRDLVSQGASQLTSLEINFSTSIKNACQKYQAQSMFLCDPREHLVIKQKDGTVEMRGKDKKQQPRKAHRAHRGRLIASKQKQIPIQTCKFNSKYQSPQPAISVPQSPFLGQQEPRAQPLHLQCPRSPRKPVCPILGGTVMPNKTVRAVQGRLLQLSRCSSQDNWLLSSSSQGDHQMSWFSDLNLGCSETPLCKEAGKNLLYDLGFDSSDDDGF
B4: Zyxin (Homo sapiens), Q15942 (parent)
chain: MAAPRPSPAISVSVSAPAFYAPQKKFGPVVAPKPKVNPFRPGDSEPPPAPGAQRAQMGRVGEIPPPPPEDFPLPPPPLAGDGDDAEGALGGAFPPPPPPIEESFPPAPLEEEIFPSPPPPPEEEGGPEAPIPPPPQPREKVSSIDLEIDSLSSLLDDMTKNDPFKARVSSGYVPPPVATPFSSKSSTKPAAGGTAPLPPWKSPSSSQPLPQVPAPAQSQTQFHVQPQPQPKPQVQLHVQSQTQPVSLANTQPRGPPASSPAPAPKFSPVTPKFTPVASKFSPGAPGGSGSQPNQKLGHPEALSAGTGSPQPPSFTYAQQREKPRVQEKQHPVPPPAQNQNQVRSPGAPGPLTLKEVEELEQLTQQLMQDMEHPQRQNVAVNELCGRCHQPLARAQPAVRALGQLFHIACFTCHQCAQQLQGQQFYSLEGAPYCEGCYTDTLEKCNTCGEPITDRMLRATGKAYHPHCFTCVVCARPLEGTSFIVDQANRPHCVPDYHKQYAPRCSVCSEPIMPEPGRDETVRVVALDKNFHMKCYKCEDCGKPLSIEADDNGCFPLDGHVLCRKCHTARAQT
partner: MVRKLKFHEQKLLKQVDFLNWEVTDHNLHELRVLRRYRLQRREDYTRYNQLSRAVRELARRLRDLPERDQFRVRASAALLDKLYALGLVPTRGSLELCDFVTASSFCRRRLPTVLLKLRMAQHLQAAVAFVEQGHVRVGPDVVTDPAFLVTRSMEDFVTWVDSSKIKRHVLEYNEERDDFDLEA

Variants of: B1
Details: with tri54_human TRIM54, Q9BYV2

Question: How did the “effect of a mutation on the interaction” value turn out when I501F was run?
Answer: disrupting interaction strength

Variants of: B2
Details: with traf2_human TRAF2, Q12933
Chain of traf2_human TRAF2, Q12933 (Q12933 whole entry): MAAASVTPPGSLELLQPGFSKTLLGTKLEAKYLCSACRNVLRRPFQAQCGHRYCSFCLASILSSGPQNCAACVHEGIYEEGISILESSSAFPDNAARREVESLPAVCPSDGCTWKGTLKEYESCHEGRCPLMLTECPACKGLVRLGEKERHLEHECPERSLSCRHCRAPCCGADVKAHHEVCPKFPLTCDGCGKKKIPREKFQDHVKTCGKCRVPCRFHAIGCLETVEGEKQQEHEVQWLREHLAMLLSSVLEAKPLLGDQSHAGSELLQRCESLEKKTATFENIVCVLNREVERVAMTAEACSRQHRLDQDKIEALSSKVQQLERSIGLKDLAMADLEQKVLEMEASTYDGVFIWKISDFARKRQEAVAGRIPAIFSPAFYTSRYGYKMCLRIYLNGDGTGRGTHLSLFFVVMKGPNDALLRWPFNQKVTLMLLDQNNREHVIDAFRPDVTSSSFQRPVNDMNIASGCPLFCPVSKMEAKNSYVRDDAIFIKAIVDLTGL

Question: With MGKPSSMDTKFKDDLFRKYVQFHESKVDTTTSRQRPGSDECLRVAASTLLSLHKVDPFYRFRLIQFYEVVESSLRSLSSSSLRALHGAFSMLETVGINLFLYPWKKEFRSIKTYTGPFVYYVKSTLLEEDIRAILSCMGYTPELGTAYKLRELVETLQVKMVSFELFLAKVECEQMLEIHSQVKDKGYSELDIVSERKSSAEDVRGCSDALRRRAEGREHLTASMSRVALQKSASERAAKDYYKPRVTKPSRSVDAYDSYWESRKPPLKASLSLRKEPVATDVGDDLKDEIIRPSPSLLTMASSPHGSPDVLPPASPSNGPALLRGTYFSTQDDVDLYTDSEPRATYRRQDALRPDVWLLRNDAHSLYHKRSPPAKESALSKCQSCGLSCSSSLCQRCDSLLTCPPASKPSAFPSKASTHDSLAHGASLREKYPGQTQGLDRFPHLHSKSKPSTTPTSRCGFCNRPGATNTCTQCSKVSCDACLSAYHYDPCYKKSELHKFMPNNQLNYKSTQLSHLVYR [L443F] as the variant, how does the “effect of a mutation on the interaction” value read?
Answer: disrupting interaction strength

Variants of: B3
Details: with iho1_human IHO1, Q8IYA8

Question: Which “effect of a mutation on the interaction” value does the source give for MGGSALNQGVLEGDDAPGQSLYERLSQRMLDISGDRGVLKDVIREGAGDLVAPDASVLVKYSGYLEHMDRPFDSNYFRKTPRLMKLGEDITLWGMELGLLSMRRGELARFLFKPNYAYGTLGCPPLIPPNTTVLFEIELLDFLDCAESDKFCALSAEQQDQFPLQKVLKVAATEQEFGNYLFRQNRFYDAKVRYKRALLLLRRRSAPPEEQHLVEAAKLPVLLNLSFTYLKLDRPTIALCYGEQALIIDQKNAKALFRCGQACLLLTEYQKARDFLVRAQKEQPFNHDINNELKKLASCYRDYVDKEKEMWHRMFAPCGDGSTAGES [R175Q] here?
Answer: with no effect

Question: How did the “effect of a mutation on the interaction” value turn out when MGGSALNQGVLEGDDAPGQSLYERLSQRMLDISGDRGVLKDVIREGAGDLVAPDASVLVKYSGYLEHMDRPFDSNYFRKTPRLMKLGEDITLWGMELGLLSMRRGELARFLFKPNYAYGTLGCPPLIPPNTTVLFEIELLDFLDCAESDKFCALSAEQQDQFPLQKVLKVAATEREFGNYLFRQNRFYDAKVRYKRALLLLRRRSAPPEEQHLVEAAKLPVLLNLSFTYLKLDRPTIALCYGEQALIIDQKNAKALFRCGQACLLLTEYQKARDFLVRAQKEQPFNNDINNELKKLASCYRDYVDKEKEMWHRMFAPCGDGSTAGES [H287N] was run?
Answer: with no effect

Variants of: B4
Details: with imp3_human IMP3, Q9NV31

Question: How did the “effect of a mutation on the interaction” value turn out when MAAPRPSPAISVSVSAPAFYAPQKKFGPVVAPKPKVNPFRPGDSEPPPAPGAQRAQMGRVGEIPPPPPEDFPLPPPPLAGDGDDAEGALGGAFPPPPPPIEESFPPAPLEEEIFPSPPPPPEEEGGPEAPIPPPPQPREKVSSIDLEIDSLSSLLDDMTKNDPFKARVSSGYVPPPVATPFSSKSSTKPAAGGTAPLPPWKSPSSSQPLPQVPAPAQSQTQFHVQPQPQPKPQVQLHVQSQTQPVSLANTQPRGPPASSPAPAPKFSPVTPKFTPVASKFSPGAPGGSGSQPNQKLGHPEALSAGTGSPQPPSFTYAQQREKPRVQEKQHPVPPPAQNQNQVRSPGAPGPLTLKEVEELEQLTQQLMQDMEHPQRQNVAVNELCGRCHQPLARAQPAVRALGQLFHIACFTCHQCAQQLQGQQFYSLEGAPYCEGCYTDTLEKCNTCGEPITDRMLRATGKAYHPHCFTCVVCARPLEGTSFIVDQANRPHCVPDYHKQYAPRCSVCSEPIMPEPGRDETVRVVALDKNFHMKCYKCEDCGKPLSIEADDNGCFPLDGHVLCQKCHTARAQT [R563Q] was run?
Answer: with no effect

Question: With MAAPRPSPAISVSVSAPAFYAPQKKFGPVVAPKPKVNPFRPGDSEPPPAPGAQRAQMGRVGEIPPPPPEDFPLPPPPLAGDGDDAEGALGGAFPPPPPPIEESFPPAPLEEEIFPSPPPPPEEEGGPEAPIPPPPQPREKVSSIDLEIDSLSSLLDDMTKNDPFKARVSSGYVPPPVATPFSSKSSTKPAAGGTAPLPPWKSPSSSQPLPQVPAPAQSQTQFHVQPQPQPKPQVQLHVQSQTQPVSLANTQPRGPPASSPAPAPKFSPVTPKFTPVASKFSPGAPGGSGSQPNQKLGHPEALSAGTGSPQPPSFTYAQQREKPRVQEKQHPVPPPAQNQNQVRSPGAPGPLTLKEVEELEQLTQQLMQDMEHPQRQNVAVNELCGRCHQPLARAQPAVRALGQLFHIACFTCHQCAQQLQGQQFYSLEGAPYCEGCYTDTLEKCNTCGEPITDRMLRATGKAYHPHCFTCVVCARPLEGTSFIVDQANWPHCVPDYHKQYAPRCSVCSEPIMPEPGRDETVRVVALDKNFHMKCYKCEDCGKPLSIEADDNGCFPLDGHVLCRKCHTARAQT [R489W] as the variant, how does the “effect of a mutation on the interaction” value read?
Answer: with no effect
